Measurements: patent US20260049134A1 (UNIVERSITY OF FLORIDA RESEARCH FOUNDATION, published 2026)

T1: GARS, endogenous in H929 multiple myeloma cells (human, UniProt P41250 37-739, limits assumed)
T1 construct: Native protein pulled down from H929 lysates; also called Glycyl-tRNA synthetase; GlyRS
T1 sequence: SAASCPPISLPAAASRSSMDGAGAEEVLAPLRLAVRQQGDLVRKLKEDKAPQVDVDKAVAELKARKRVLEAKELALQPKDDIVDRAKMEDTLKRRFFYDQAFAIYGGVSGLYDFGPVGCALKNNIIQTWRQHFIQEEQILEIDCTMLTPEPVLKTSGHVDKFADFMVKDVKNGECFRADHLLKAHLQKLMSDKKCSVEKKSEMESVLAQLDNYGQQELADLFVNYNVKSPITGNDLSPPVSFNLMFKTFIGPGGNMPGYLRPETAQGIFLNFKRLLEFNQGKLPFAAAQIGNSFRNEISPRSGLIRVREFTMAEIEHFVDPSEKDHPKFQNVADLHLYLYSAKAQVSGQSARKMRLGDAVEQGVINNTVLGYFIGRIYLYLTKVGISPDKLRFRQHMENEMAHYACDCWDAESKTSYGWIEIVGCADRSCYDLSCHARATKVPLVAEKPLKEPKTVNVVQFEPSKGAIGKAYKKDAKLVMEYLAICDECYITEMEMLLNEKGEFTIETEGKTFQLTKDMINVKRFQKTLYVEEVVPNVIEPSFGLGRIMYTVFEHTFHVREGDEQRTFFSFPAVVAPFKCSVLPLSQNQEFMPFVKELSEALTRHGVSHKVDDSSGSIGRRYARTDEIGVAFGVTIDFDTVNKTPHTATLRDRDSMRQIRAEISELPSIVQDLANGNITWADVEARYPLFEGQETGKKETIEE

T2: CADM1, endogenous in H929 multiple myeloma cells (human, UniProt Q9BY67 45-442)
T2 construct: Native protein on H929 cells (flow cytometry, siRNA knockdown) and in H929 lysates (IP/MS); RPMI-8226 cells were used for sorting with HW-97; also called IGSF4A
T2 sequence: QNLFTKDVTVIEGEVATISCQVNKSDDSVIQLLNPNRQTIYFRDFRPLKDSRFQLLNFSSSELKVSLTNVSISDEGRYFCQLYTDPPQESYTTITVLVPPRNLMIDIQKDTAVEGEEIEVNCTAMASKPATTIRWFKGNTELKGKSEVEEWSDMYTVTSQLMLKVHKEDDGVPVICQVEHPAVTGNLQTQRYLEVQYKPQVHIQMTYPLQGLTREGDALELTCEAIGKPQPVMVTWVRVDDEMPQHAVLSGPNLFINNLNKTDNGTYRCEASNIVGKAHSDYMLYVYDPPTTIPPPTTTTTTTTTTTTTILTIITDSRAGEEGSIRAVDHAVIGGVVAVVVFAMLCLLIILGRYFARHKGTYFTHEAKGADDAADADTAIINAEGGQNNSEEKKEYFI


Assays:
[1] = target: T1, GARS, endogenous in H929 multiple …; assay: IP from H929 cell lysate, LC-MS/MS
Method: (§1) Immunoprecipitation. […] After 30 min of rocking at 4° C., and lysates were centrifuged at 18,400×g for 20 min at 4° C. Subsequently, 1-mL aliquots of the supernatants were pre-cleared twice with Protein G agarose (Thermo Fisher Scientific) by adding 50 μL of 50% resin slurry and incubating 30 min with end-over-end tumbling at 4° C., followed by centrifugation at 16,000×g for 5 min and pooling of the pre-cleared cell lysate aliquots. Representative mAbs from each cluster were immobilized on Protein G agarose at a ratio of 25 μg IgG1 per 30 μL of 50% slurry, diluted to 500 μL with Dulbecco's PBS (DPBS) and incubated for 1 h at 4° C. with tumbling, followed by centrifugation at 5,000×g for 30 s and 2 washes with lysis buffer. After the last wash, the ˜15 μL of IgG1-coated resin was blocked with 10 μL of 10% BSA (MilliporeSigma). Next, 1 mL of the pooled pre-cleared cell lysate was added to the IgG1-coated resin and incubated for 3 h at 4° C. with tumbling. […] Finally, 16 μL of the eluate (˜20%) was analyzed on a reducing SDS-PAGE gel stained with SYPRO Ruby dye (Bio-Rad Laboratories), while the rest was stored at −80° C. prior to LC-MS/MS analysis. […]

[2] = target: T3, ICAM1, endogenous in H929 multiple myeloma cells (human, UniProt P05362 28-532); assay: flow cytometry, H929 + vehicle; None 513
T3 construct: Native protein on H929 cells (flow cytometry, siRNA knockdown) and in H929 lysates (IP/MS); also called CD54
T3 sequence (P05362 28-532 limits assumed): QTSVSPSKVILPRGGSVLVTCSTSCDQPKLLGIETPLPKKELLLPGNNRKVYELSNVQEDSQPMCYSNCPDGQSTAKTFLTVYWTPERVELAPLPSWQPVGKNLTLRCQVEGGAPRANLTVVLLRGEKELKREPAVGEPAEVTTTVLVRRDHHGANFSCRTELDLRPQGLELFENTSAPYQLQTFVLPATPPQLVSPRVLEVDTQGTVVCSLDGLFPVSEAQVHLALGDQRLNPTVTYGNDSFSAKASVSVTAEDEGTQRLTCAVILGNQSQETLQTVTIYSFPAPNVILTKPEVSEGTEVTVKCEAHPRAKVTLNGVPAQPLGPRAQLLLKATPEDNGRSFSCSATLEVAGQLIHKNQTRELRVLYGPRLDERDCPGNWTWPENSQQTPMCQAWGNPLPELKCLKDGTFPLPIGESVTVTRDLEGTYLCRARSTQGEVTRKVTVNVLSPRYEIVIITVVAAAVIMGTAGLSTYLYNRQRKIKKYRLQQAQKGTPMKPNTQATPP

[3] = target: T1, GARS, endogenous in H929 multiple …; assay: IP from H929 cell lysate, LC-MS/MS, spectral counts
Method: as §1

[4] = target: T3, ICAM1, endogenous in H929 multiple …; assay: flow cytometry, H929 + NT Green siRNA; None 1.35
[5] = target: T2, CADM1, endogenous in H929 multiple …; assay: flow cytometry, H929 + ICAM1 siRNA; None 1.06
[6] = target: T2, CADM1, endogenous in H929 multiple …; assay: flow cytometry, H929 + PTPRG siRNA; None 490
[7] = target: T2, CADM1, endogenous in H929 multiple …; assay: flow cytometry, H929 + ICAM1 siRNA; None 455

Row | Binder | binding result [1] | mAb binding (MFI) [2] | binding result [3] | Cells stained (%) [4] | Cells stained (%) [5] | mAb binding (MFI) [6] | mAb binding (MFI) [7]
1 | HW-1 chimeric rabbit-human IgG1 LA/LA/PG (antibody, V domains shown, Fc-silenced (L234A/L235A/P329G) IgG1, lambda; Alexa Fluor 647-labeled in single-step flow cytometry; Prototype of cluster C-1) VH: QSLEESGGGLFKPTDTLTLTCTASGFSLGSSYAISWVRQAPGKELEWIGTIDSGRAYYARWAKSRSTITRNTNENTVTLKMTSLTAADTATYFCARDLIPTYSQDIWGPGTLVTISS VL: SFVLTQPASVQVNLGQTVSLTCTADTLSRRYASWYQQKPGQAPVLLIYRDTSRPSGVPDRFSGSSSGNTATLTISGAQAGDEADYYCATSDGSGNSYQYVFGGGTQLTVTS | no binding |  |  |  |  |  | 
2 | HW-113 chimeric rabbit-human IgG1 LA/LA/PG (antibody, V domains shown, Fc-silenced (L234A/L235A/P329G) IgG1, lambda; Alexa Fluor 647-labeled in single-step flow cytometry) VH: QKQLVESGGGLVQPGGSLTLTCTVSGFSLNKYYMGWFRQAPGKGLEWIGVISRSGDTYYSSWAKGRFTISKASTTVDLRITSPTTEDTATYFCARDASSPGFHGDRLDLWGQGTLVTVSS VL: SFVLTQPASVQVNLGQTVSLTCTADTLSRSYASWYQQKPGQAPVLLIYRDTSRPSGVPDRFSGSSSGNTATLTISGAQAGDEADYYCATSDGIGSNYLWVFGGGTQLTVTG |  | 49100 | no binding | 99.8% |  |  | 
3 | HW-101 chimeric rabbit-human IgG1 LA/LA/PG (antibody, V domains shown, Fc-silenced (L234A/L235A/P329G) IgG1, lambda; Alexa Fluor 647-labeled in single-step flow cytometry; Cluster C-97) VH: QEQLVESGGRLVTPGTPLTLTCKASGFSLGKYDMSWVRQAPGKGLEWIGTIYAGSGSTWYASWAKGRFTISKTSTTVDLKMTSLTTEDTATYFCARDFLGVNSIWGPGTLVTISS VL: SFVLTQPASVQVNLGQTVSLTCTADTLSRSYASWYQQKPDQAPVLLIHRDTSRPSGVPDRFSGSNSGNTATLTISGAQAGDEADYYCATSDGSGSNFHFVFGGGTQLTVTG |  |  | no binding |  | 93.8% | 5900 | 6390
4 | HW-97 chimeric rabbit-human IgG1 LA/LA/PG (antibody, V domains shown, Fc-silenced (L234A/L235A/P329G) IgG1, lambda; Alexa Fluor 647-labeled in single-step flow cytometry; Prototype of cluster C-97) VH: QKQLVESGGRLVTPGTPLTLTCTVTGIDLSSHGMSWVRQAPGKGLEWIGVIYPSGSTWYASWARGRFTISKTSTTVDLKMTSLTTEDTATHFCARGDVGGADNNIWGPGTLVTVSS VL: SFVLTQPASVQVDLGQTVSLTCTAETLSRSYASWYQQKPGQAPVLLIYRDTSRPSGVPDRFSGSSSGNTATLTISGAQAGDEADYYCATSDGSGSSYQYVFGGGTQLTVTG |  |  |  |  | 97.1% | 7040 | 9430
5 | TH9-0022 (antibody, human IgG1, kappa, L234A L235A, V domains shown, also called TH9-022; negative control) VH: QSLEESGGRLVTPGTPLTLTCTVSGFSLSSYAMNWVRQAPGKGLEWIGIINSYGSTYYASWAKGRFTISKTSTTVDLKITSPTTEDTATYFCARVTYDSYGYGYAPYGMDLWGPGTLVTVSS VL: LVMTQTPSSTSNAVGGTVTIKCQASQSIGNVLAWYQQKPGQPPKLLIYAASTLASGVPSRVGGSRSGTEYTLTISGVQREDAATYYCLGSDSDSDIAFGGGTELEILR |  | 595 |  | 1.86% |  |  | 
6 | TH9-0022 (antibody, human IgG1, kappa, L234A L235A, V domains shown, also called TH9-022; negative control IgG1) VH: QSLEESGGRLVTPGTPLTLTCTVSGFSLSSYAMNWVRQAPGKGLEWIGIINSYGSTYYASWAKGRFTISKTSTTVDLKITSPTTEDTATYFCARVTYDSYGYGYAPYGMDLWGPGTLVTVSS VL: LVMTQTPSSTSNAVGGTVTIKCQASQSIGNVLAWYQQKPGQPPKLLIYAASTLASGVPSRVGGSRSGTEYTLTISGVQREDAATYYCLGSDSDSDIAFGGGTELEILR | no binding |  |  |  |  |  | 
